Laboratory results as given in paper PMC9195047 (The Journal of Experimental Medicine, 2022).

Experiments:
[1] = target: VEEV TC-83 structural proteins (capsid-p62-6K-E1) displayed on Expi293F cells (Venezuelan equine encephalitis virus, …, UniProt P05674, strain); assay: flow cytometry on cells
[2] = target: CHIKV 181/25 structural proteins on infected Vero cells (Chikungunya virus, 181/25, UniProt Q88628, strain); assay: flow cytometry on cells

B1: hVEEV-63 (human anti-VEEV monoclonal antibody, IgG1) (antibody, V domains shown)
VH: QVQLVQSGAEVKKPGASVKVSCKSSGYTFTNYIIHWVRQAPGQRLEWMGWINAGNGNTKYSQKFQGRISVTRDTSASAAYMELSSLKSEDTALYYCATLQMDYGGNGDLDYWGQGTLVTVSS
VL: YELTQPPSVSVSPGQTARITCSGDALPKQYVYWYQQKPGQAPVLVIYKDSERPSGIPERFSGSSSGTTVTLTISGVQAEDDADYYCQAADSSNTEYVFGTGTKVTVL
B1: binds [1]; no binding (tested: 10 µg/ml) [2].
